This is an account of results in paper doi:10.1101/2021.05.25.445488 (bioRxiv, 2021).

For the test, the target named is T1, GST-TULP3 full length (human, UniProt O75386-1 1-442).
T1 sequence (looked up): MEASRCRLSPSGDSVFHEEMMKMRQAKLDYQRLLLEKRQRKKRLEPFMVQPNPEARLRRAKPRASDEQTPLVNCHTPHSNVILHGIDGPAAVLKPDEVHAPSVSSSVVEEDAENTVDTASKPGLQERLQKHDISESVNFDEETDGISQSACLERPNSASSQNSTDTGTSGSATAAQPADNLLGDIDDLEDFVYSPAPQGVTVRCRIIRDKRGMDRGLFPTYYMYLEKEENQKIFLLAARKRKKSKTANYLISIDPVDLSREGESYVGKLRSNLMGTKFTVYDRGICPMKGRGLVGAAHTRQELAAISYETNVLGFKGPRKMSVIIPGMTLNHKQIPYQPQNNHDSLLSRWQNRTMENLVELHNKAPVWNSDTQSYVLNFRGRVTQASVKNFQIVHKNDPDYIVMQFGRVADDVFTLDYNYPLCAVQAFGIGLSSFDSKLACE
Kind of test: pull-down.

B1: GFP-ARL13B N-terminus (1-298 aa), insect cell purified (domain or fragment, human, UniProt Q3SXY8-1 1-298, looked up)
chain: MFSLMASCCGWFKRWREPVRKVTLLMVGLDNAGKTATAKGIQGEYPEDVAPTVGFSKINLRQGKFEVTIFDLGGGIRIRGIWKNYYAESYGVIFVVDSSDEERMEETKEAMSEMLRHPRISGKPILVLANKQDKEGALGEADVIECLSLEKLVNEHKCLCQIEPCSAISGYGKKIDKSIKKGLYWLLHVIARDFDALNERIQKETTEQRALEEQEKQERAERVRKLREERKQNEQEQAELDGTSGLAELDPEPTNPFQPIASVIIENEGKLEREKKNQKMEKDSDGCHLKHKMEHEQI
For the molecule B1, the binding result is “binds”.

B2: GFP-ARL13B full length, insect cell purified (natural protein)
chain: not shown
As for B2, the binding result is reported as “binds”.
